Measured values from PMC4324353.
Like-named read-outs stand apart in the source and are kept apart here.

What was measured:
[1] = target: actin filaments (polymerized A. castellani actin) (A. castellani); experiment: steady state polymerization titration
[2] = target: T1, latrunculin B bound actin (A. castellani actin monomer) (A. castellani); experiment: fluorescence polarisation
[3] = target: T1, latrunculin B bound actin (A. …); experiment: fluorescence polarisation; remark: listed apart in the source

| Kd [1] [nM] | Kd [2] [nM] | Kd [3] [nM] | Binder |
| --- | --- | --- | --- |
| 2000 | 210 | – | KKDAHAMILEFIRSRPPLKKA (domain or fragment, modifications not checked) [Spir third WH2 domain (Spir-C, SC)] |
| – | 1140 | 90 to 1130 | WARFWVQVIDELRRGVRLKKSNHERT (domain or fragment, modifications not checked) [Spir first WH2 domain (SA)] |
| – | 110 | – | KKDAHAMILEFIRSRPPLKKASDRQLGPPRMCEPS (domain or fragment, modifications not checked) [Spir third WH2 domain with Linker 3 (SC3)] |
